# Source: publication PMC11413003
# Key:
# [1] = target: complex III2 (CIII2) dimer of S. cerevisiae (S. cerevisiae) (UniProt P08067); experiment: cryo-EM structure; 10.5 uM supercomplex with 126 uM S. cerevisiae cyt. c (~1:12) in 20 mM KCl, 20 mM KH2PO4 pH 7.4, 0.01 % GDN; 3D classification with a mask over the cyt. c region
# [2] = target: S. cerevisiae CIII2CIV1/2 supercomplex (S. cerevisiae) (UniProt P08067); experiment: as above
# [3] = target: S. cerevisiae CIII2CIV1/2 supercomplex (S. cerevisiae) (UniProt P08067)
stoichiometry N [1],stoichiometry N (cyt. c per CIII monomer-CIV pair) [2],"QH2:O2 oxidoreductase activity (O2 reduction upon addition of QH2) of the supercomplex, cyt. c varied up to ~50 uM, 20 mM KCl [3] [electrons/s]",Substance
2,–,–,complex III2 (CIII2) dimer of S. cerevisiae (from UniProt P08067 31-215; P07143 62-309; P00127 1-147; P22289 1-66)
–,2,50,cytochrome c from S. cerevisiae (from UniProt P00044 1-109) (natural protein)
